# Data as given in patent publication US6462189.
# Where a chain is given by its changes, count along the chain named.
# B1: ubiquitin-binding monobody 422 (phage clone) (designed binder, not shown: large carriers; small tags and cut ends)
# chain: VSDVPRDLEVVAATPTSLLISWDAPARWTLYYRITYGETGGNSPVQEFTVPGSKSTATISGLKPGVDYTITVYAVTRRWWWSKPISINYRT
# notes: Library 4 clone obtained by panning on ubiquitin; no test of it as a single clone is reported
# B2: ubiquitin-binding monobody 424 (phage clone) (designed binder, not shown: large carriers; small tags and cut ends)
# chain: B1 chain with A26G, R27Q, W28R, L30F, W81A
# notes: as for B1
# Target: T1, Yeast ubiquitin (yeast, UniProt P0CG63 1-76)
# T1 construct: mature; also called soluble ubiquitin; free ubiquitin
# Assay: clone obtained by phage panning on immobilized ubiquitin
# Protocol: Libraries 2 and 4, described in Example VI above, were used to select ubiquitin-binding monobodies. Ubiquitin (1 μg in 50 μl sodium bicarbonate buffer (100 mM, pH 8.5)) was immobilized in the wells of a microtiter plate, followed by blocking with BSA (3% in TBS). Panning was performed as described above. In the first two rounds, 1 μg of ubiquitin was immobilized per well, and bound phage were elute with an acidic solution. From the third to the sixth rounds, 0.1 μg of ubiquitin was immobilized per well and the phage were eluted either with an acidic solution or with TBS containing 10 μM ubiquitin.
# T1 sequence (P0CG63 1-76 limits assumed): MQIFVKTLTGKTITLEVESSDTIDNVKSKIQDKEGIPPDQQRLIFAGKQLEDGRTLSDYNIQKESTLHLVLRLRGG
row,Binder,binding result
1,B1,binds
2,B2,binds
